Results published in the supplement of paper PMC10065799, “High-throughput profiling of sequence recognition by tyrosine kinases and SH2 domains using bacterial peptide display” (eLife, 2023).

Each sequence was assayed against c-Src SH2 (assay: SH2 binding enrichment of the phosphorylated peptide, bacterial display (enrichment ratio); higher = better substrate or ligand; peptides without Tyr show the background).
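Wherever SH2 binding enrichment of the phosphorylated peptide, bacterial display is given: peptide library displayed on the E. coli surface as eCPX fusions, selected cells deep-sequenced, score is each peptide's frequency after selection divided by its frequency in the input.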
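Wherever phosphorylation enrichment, bacterial display is given: 11-residue human phosphosite peptides and single-mutation variants displayed on the E. coli surface, counted by deep sequencing, each peptide's frequency after selection divided by its frequency in the unselected input library; frequency after pTyr selection over input frequency; kinase dosed for 20-30% of maximal phosphorylation in three min.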

Row | Sequence | SH2 binding enrichment
1 | GLCSFYETSKM [MAGED2_Y449_R446C_YF] | 0.797
2 | DLFRLYVCVKE [ARID1B_Y1091] | 0.35
3 | FSSLGYPPPEG [ZSWIM4_Y87_YF] | 0.535
4 | WVYNHYRCIIW [BRCA2_Y2624_W2626C] | 0.58
5 | REQREYLDQLN [CCDC88B_Y1277] | 0.425
6 | MAALSYVSEIG [BPIFB2_Y36_K31M] | 0.478
7 | TRDVNYGWIIR [MT-CYB_Y75] | 0.55
8 | GFDHSYFFIAT [ESD_Y262_YF] | 0.621
9 | PQGVRYIYTID [DCX_Y103] | 0.618
10 | HSLRDYKEALM [ADA2_Y337_H335R] | 0.467
11 | GDFFRYLAEVA [YWHAG_Y133_YF] | 0.469
12 | IFRASYVPFAA [RBM47_Y541_G538R_YF] | 0.542
13 | ITRDIYETDFF [INSR_Y1185_M1180I_YF] | 1.12
14 | ITLPIYTKGSE [ANK2_Y1455_E1458G] | 0.392
15 | FLAVGYHKTHI [IDS_Y225_P228T] | 1.03
16 | RVVVPYEPPEV [TP53_Y220_S215R] | 1.03
17 | ARSMEYLAEQK [MST1R_Y1198] | 0.384

Row | Sequence | SH2 binding enrichment
18 | RRFSSYSQMEN [PKP1_Y120] | 0.559
19 | EKKDIYKAGEQ [CFH_Y1008_V1007I] | 0.365
20 | DNACQYMLTDR [MYH7_Y164_Y162C] | 0.814
21 | SGGLDYGMVGG [TNRC6B_Y1382_M1380L] | 0.489
22 | LNYNEYFRDLN [HPRT1_Y198_D194N] | 0.443
23 | QRKRAYVEIEF [MAK16_Y282_YF] | 3.17
24 | KRLWDYGMSSS [F8_Y1728_E1723K] | 0.457
25 | VAFLFYKSIGP [ADGRL4_Y302_V300L_YF] | 0.301
26 | TQNGVYSAANY [DDX5_Y535] | 0.838
27 | FFLGAYDRFLP [SLC22A5_Y486_V481F_YF] | 1.25
28 | RLGNQHVNVMN [SLC3A1_Y461_Y461H] | 0.429
29 | INMKKYCKKDF [NTN1_Y490_YF] | 0.807
30 | MSRYIYSTDYY [NTRK1_Y676_D674Y] | 1.53
31 | KLPFLYDDPFS [GPX2_Y127_P126L_YF] | 1.23
32 | KLPFPYDDPFS [GPX2_Y127_YF] | 3.9
33 | SQSPHYFRSGR [GPATCH8_Y1038] | 0.394

Each sequence was assayed against Grb2 SH2 (UniProt P62993) in the same assay as above.
Grb2 SH2, sequence (P62993 whole entry, looked up): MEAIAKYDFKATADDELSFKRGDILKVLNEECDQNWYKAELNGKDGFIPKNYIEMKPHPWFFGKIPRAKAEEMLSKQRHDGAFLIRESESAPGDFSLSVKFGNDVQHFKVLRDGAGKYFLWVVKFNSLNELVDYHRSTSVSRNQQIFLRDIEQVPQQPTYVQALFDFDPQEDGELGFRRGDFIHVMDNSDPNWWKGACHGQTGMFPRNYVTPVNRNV

Row | Sequence | SH2 binding enrichment
34 | GLCSFYETSKM [MAGED2_Y449_R446C_YF] | 0.895
35 | DLFRLYVCVKE [ARID1B_Y1091] | 0.59
36 | FSSLGYPPPEG [ZSWIM4_Y87_YF] | 0.957
37 | WVYNHYRCIIW [BRCA2_Y2624_W2626C] | 0.94
38 | REQREYLDQLN [CCDC88B_Y1277] | 0.589
39 | MAALSYVSEIG [BPIFB2_Y36_K31M] | 0.819
40 | TRDVNYGWIIR [MT-CYB_Y75] | 1.22
41 | GFDHSYFFIAT [ESD_Y262_YF] | 0.813
42 | PQGVRYIYTID [DCX_Y103] | 0.772
43 | HSLRDYKEALM [ADA2_Y337_H335R] | 0.933
44 | GDFFRYLAEVA [YWHAG_Y133_YF] | 0.763
45 | IFRASYVPFAA [RBM47_Y541_G538R_YF] | 0.8
46 | ITRDIYETDFF [INSR_Y1185_M1180I_YF] | 0.83
47 | ITLPIYTKGSE [ANK2_Y1455_E1458G] | 0.78
48 | FLAVGYHKTHI [IDS_Y225_P228T] | 1.23
49 | RVVVPYEPPEV [TP53_Y220_S215R] | 0.836
50 | ARSMEYLAEQK [MST1R_Y1198] | 0.819

Row | Sequence | SH2 binding enrichment
51 | RRFSSYSQMEN [PKP1_Y120] | 0.79
52 | EKKDIYKAGEQ [CFH_Y1008_V1007I] | 0.826
53 | DNACQYMLTDR [MYH7_Y164_Y162C] | 0.859
54 | SGGLDYGMVGG [TNRC6B_Y1382_M1380L] | 0.775
55 | LNYNEYFRDLN [HPRT1_Y198_D194N] | 0.985
56 | QRKRAYVEIEF [MAK16_Y282_YF] | 1.55
57 | KRLWDYGMSSS [F8_Y1728_E1723K] | 0.971
58 | VAFLFYKSIGP [ADGRL4_Y302_V300L_YF] | 0.542
59 | TQNGVYSAANY [DDX5_Y535] | 0.842
60 | FFLGAYDRFLP [SLC22A5_Y486_V481F_YF] | 1.15
61 | RLGNQHVNVMN [SLC3A1_Y461_Y461H] | 0.987
62 | INMKKYCKKDF [NTN1_Y490_YF] | 0.953
63 | MSRYIYSTDYY [NTRK1_Y676_D674Y] | 0.906
64 | KLPFLYDDPFS [GPX2_Y127_P126L_YF] | 0.846
65 | KLPFPYDDPFS [GPX2_Y127_YF] | 1.12
66 | SQSPHYFRSGR [GPATCH8_Y1038] | 0.731

What follows are sequences tested against SHP2-C SH2 in the same assay as above.

Row | Sequence | SH2 binding enrichment
67 | GLCSFYETSKM [MAGED2_Y449_R446C_YF] | 0.689
68 | DLFRLYVCVKE [ARID1B_Y1091] | 0.51
69 | FSSLGYPPPEG [ZSWIM4_Y87_YF] | 0.829
70 | WVYNHYRCIIW [BRCA2_Y2624_W2626C] | 1
71 | REQREYLDQLN [CCDC88B_Y1277] | 0.47
72 | MAALSYVSEIG [BPIFB2_Y36_K31M] | 0.857
73 | TRDVNYGWIIR [MT-CYB_Y75] | 1.28
74 | GFDHSYFFIAT [ESD_Y262_YF] | 0.697
75 | PQGVRYIYTID [DCX_Y103] | 15.4
76 | HSLRDYKEALM [ADA2_Y337_H335R] | 0.699
77 | GDFFRYLAEVA [YWHAG_Y133_YF] | 0.561
78 | IFRASYVPFAA [RBM47_Y541_G538R_YF] | 0.681
79 | ITRDIYETDFF [INSR_Y1185_M1180I_YF] | 0.485
80 | ITLPIYTKGSE [ANK2_Y1455_E1458G] | 0.715
81 | FLAVGYHKTHI [IDS_Y225_P228T] | 1.37
82 | RVVVPYEPPEV [TP53_Y220_S215R] | 0.925
83 | ARSMEYLAEQK [MST1R_Y1198] | 0.611

Row | Sequence | SH2 binding enrichment
84 | RRFSSYSQMEN [PKP1_Y120] | 0.774
85 | EKKDIYKAGEQ [CFH_Y1008_V1007I] | 0.648
86 | DNACQYMLTDR [MYH7_Y164_Y162C] | 0.866
87 | SGGLDYGMVGG [TNRC6B_Y1382_M1380L] | 0.724
88 | LNYNEYFRDLN [HPRT1_Y198_D194N] | 0.672
89 | QRKRAYVEIEF [MAK16_Y282_YF] | 2.48
90 | KRLWDYGMSSS [F8_Y1728_E1723K] | 0.57
91 | VAFLFYKSIGP [ADGRL4_Y302_V300L_YF] | 0.457
92 | TQNGVYSAANY [DDX5_Y535] | 0.536
93 | FFLGAYDRFLP [SLC22A5_Y486_V481F_YF] | 1.74
94 | RLGNQHVNVMN [SLC3A1_Y461_Y461H] | 0.762
95 | INMKKYCKKDF [NTN1_Y490_YF] | 1.13
96 | MSRYIYSTDYY [NTRK1_Y676_D674Y] | 1.82
97 | KLPFLYDDPFS [GPX2_Y127_P126L_YF] | 0.841
98 | KLPFPYDDPFS [GPX2_Y127_YF] | 0.761
99 | SQSPHYFRSGR [GPATCH8_Y1038] | 0.411

Each sequence was assayed against Fes (UniProt P07332) (assay: phosphorylation enrichment, bacterial display (enrichment ratio); higher = better substrate or ligand; peptides without Tyr show the background).
Fes, sequence (P07332 whole entry, looked up): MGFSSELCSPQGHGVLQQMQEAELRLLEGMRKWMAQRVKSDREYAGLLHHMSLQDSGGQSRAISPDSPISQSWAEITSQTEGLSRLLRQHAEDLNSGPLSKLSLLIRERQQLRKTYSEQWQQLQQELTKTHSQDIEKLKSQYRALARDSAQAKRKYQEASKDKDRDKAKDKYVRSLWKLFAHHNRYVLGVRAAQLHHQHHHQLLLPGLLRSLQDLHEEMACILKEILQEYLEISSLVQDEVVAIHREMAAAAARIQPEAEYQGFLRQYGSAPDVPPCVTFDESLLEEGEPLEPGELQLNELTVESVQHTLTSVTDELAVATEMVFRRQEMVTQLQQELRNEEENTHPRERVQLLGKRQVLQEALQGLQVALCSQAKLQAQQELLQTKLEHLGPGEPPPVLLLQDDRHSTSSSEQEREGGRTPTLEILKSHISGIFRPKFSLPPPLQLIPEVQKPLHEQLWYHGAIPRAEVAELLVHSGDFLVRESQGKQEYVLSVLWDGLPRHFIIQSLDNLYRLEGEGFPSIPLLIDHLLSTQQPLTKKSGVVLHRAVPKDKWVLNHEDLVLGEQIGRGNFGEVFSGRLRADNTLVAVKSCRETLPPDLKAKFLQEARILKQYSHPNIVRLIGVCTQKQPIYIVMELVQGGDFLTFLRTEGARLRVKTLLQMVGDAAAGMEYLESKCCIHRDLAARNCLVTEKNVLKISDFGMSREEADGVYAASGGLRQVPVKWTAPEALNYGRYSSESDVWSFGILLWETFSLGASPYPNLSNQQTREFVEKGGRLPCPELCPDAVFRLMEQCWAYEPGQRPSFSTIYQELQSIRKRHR

Row | Sequence | phosphorylation enrichment
100 | GLCSFYETSKM [MAGED2_Y449_R446C_YF] | 1.45
101 | DLFRLYVCVKE [ARID1B_Y1091] | 1.52
102 | FSSLGYPPPEG [ZSWIM4_Y87_YF] | 0.906
103 | WVYNHYRCIIW [BRCA2_Y2624_W2626C] | 1.63
104 | REQREYLDQLN [CCDC88B_Y1277] | 0.984
105 | MAALSYVSEIG [BPIFB2_Y36_K31M] | 0.733
106 | TRDVNYGWIIR [MT-CYB_Y75] | 0.999
107 | GFDHSYFFIAT [ESD_Y262_YF] | 1.28
108 | PQGVRYIYTID [DCX_Y103] | 5.16
109 | HSLRDYKEALM [ADA2_Y337_H335R] | 1.4
110 | GDFFRYLAEVA [YWHAG_Y133_YF] | 1.18
111 | IFRASYVPFAA [RBM47_Y541_G538R_YF] | 1.04
112 | ITRDIYETDFF [INSR_Y1185_M1180I_YF] | 1.25
113 | ITLPIYTKGSE [ANK2_Y1455_E1458G] | 0.759
114 | FLAVGYHKTHI [IDS_Y225_P228T] | 0.946
115 | RVVVPYEPPEV [TP53_Y220_S215R] | 0.99
116 | ARSMEYLAEQK [MST1R_Y1198] | 0.839

Row | Sequence | phosphorylation enrichment
117 | RRFSSYSQMEN [PKP1_Y120] | 2.57
118 | EKKDIYKAGEQ [CFH_Y1008_V1007I] | 0.696
119 | DNACQYMLTDR [MYH7_Y164_Y162C] | 1
120 | SGGLDYGMVGG [TNRC6B_Y1382_M1380L] | 0.722
121 | LNYNEYFRDLN [HPRT1_Y198_D194N] | 1.6
122 | QRKRAYVEIEF [MAK16_Y282_YF] | 1.42
123 | KRLWDYGMSSS [F8_Y1728_E1723K] | 0.706
124 | VAFLFYKSIGP [ADGRL4_Y302_V300L_YF] | 1.6
125 | TQNGVYSAANY [DDX5_Y535] | 0.699
126 | FFLGAYDRFLP [SLC22A5_Y486_V481F_YF] | 1.46
127 | RLGNQHVNVMN [SLC3A1_Y461_Y461H] | 1.09
128 | INMKKYCKKDF [NTN1_Y490_YF] | 0.948
129 | MSRYIYSTDYY [NTRK1_Y676_D674Y] | 1.41
130 | KLPFLYDDPFS [GPX2_Y127_P126L_YF] | 0.995
131 | KLPFPYDDPFS [GPX2_Y127_YF] | 1.11
132 | SQSPHYFRSGR [GPATCH8_Y1038] | 0.819
